Here are results for one substance from patent US8372950B2, “IgG binding peptide” (Kagoshima University, priority 2006, dated 2013).

This data set can be described thus: molecular sieve chromatography of acid-denatured MRA. Format: physicochemical. As to conditions: acid treated pH 2.7, 30° C., 10 minutes, purified on IMGpep-4K6R column, FIG. 15C. As to the method:
First, 20 μl of 1 M glycine-HCl (pH 2.7) was added to 200 μl of humanized anti-human IL-6 receptor IgG antibody (MRA) (2000 μg/ml, PBS solution). The solution was incubated for 10 minutes at 30° C. and then 30 μl of 1 M Tris-HCl (pH 8.7) was added thereto for neutralization to prepare an acid-treated antibody sample. Also, a biotinylated IMGPep-4K6R peptide-immobilized column was prepared in a manner similar to that in Example 10. An acid-treated antibody sample was injected at a flow rate of 0.4 ml/min to the column and then gradient elution was carried out using from 20 mM phosphate buffered saline (PBS, pH 7.0) containing 0.1M NaCl to 0.1M glycine-HCl (pH 2.5) containing 0.1M NaCl. The thus eluted IgG was a purified acid-denatured humanized anti-human IL-6 receptor IgG antibody (MRA).
Subsequently, the purified acid-denatured MRA was subjected to molecular sieve chromatography using a HiLoad Sperdex 200 16/60 column (GE Healthcare). Similarly, untreated MRA, an acid-treated antibody sample, and a flow-through fraction (undenatured MRA) obtained via injection of an acid-treated antibody sample to a biotinylated IMGPep-4K6R peptide-immobilized column, were also separately subjected to molecular sieve chromatography using a HiLoad Sperdex 200 16/60 column (GE Healthcare). […]

Consider “MRA: Humanized anti-human IL-6 receptor monoclonal IgG antibody, Chugai Pharmaceutical”, for which the “monomers in purified acid-denatured MRA” value is “approximately 65%”.
